# Experimental data published in paper PMC12081870 (Communications Biology, 2025).
# Where “and” joins values, the source holds several entries; their conditions need not be identical. Equal values may be shown once. Ends that are not written are not given here.
# T1: Sla1 SH3#1-2 tandem domains (aa 5-131) (S. cerevisiae, UniProt P32790 5-131, 15N-labelled (NMR only))
# T1 construct: Sla1, S. cerevisiae, first two SH3 domains (juxtaposed, no linker), residues 5-131; also called Sla1 SH3 domains 1 and 2; tandem SH3#1&2 domain; source: E. coli, purified (GST fusion, cleaved with Prescission protease; His-tagged Sla1-SH3 domains were also made); 15N- or 15N,13C-labelled for NMR
# T1 sequence (looked up): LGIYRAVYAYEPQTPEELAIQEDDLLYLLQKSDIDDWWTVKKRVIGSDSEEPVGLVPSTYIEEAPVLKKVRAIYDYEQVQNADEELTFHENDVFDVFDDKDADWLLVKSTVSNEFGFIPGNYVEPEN
# Tests used:
# [1] = tested on: Las17-GFP and Arc15-mCherry; experiment: Dual-reporter lifetimes, Las17-GFP and Arc15-mCherry co-localisation; format: cell-based, Saccharomyces cerevisiae; design: lifetime, GFP alone / lifetime, GFP and RFP / lifetime, RFP: unit not given here; conditions: sheet Fig9E, individual endocytic patches, one per cell
# Protocol: A size bar for each set of kymographs is shown on the upper right of each set. For (A) and (C) size bar is 100 nm and for B is 200 nm. Error bars are standard deviation. […] The site of interest is labelled in the first two time panels with a white arrow. Exposure 0.5 sec with 1 second time lapse. 120 s recorded. […] Error bars are standard deviation.
# Individual spots were analysed for lifetimes and behaviours.
# Yeast strains used in this study are listed in Supplementary table 2 and plasmids used in Supplementary table 1. Unless stated otherwise, cells were grown with rotary shaking at 30 °C in liquid YPD medium (1% yeast extract, 2% Bacto-peptone, 2% glucose supplemented with 40 μg/ml adenine) or in synthetic medium (0.67% yeast nitrogen base, 2% glucose) with appropriate supplements. […] DNA cassettes carrying mutations for integration were transformed into KAY1801. Mutant colonies were counter-selected on minimal medium, containing 0.005% uracil and 0.1% 5’-Fluoroorotic Acid (5-FOA; Melford laboratories). Allele exchange, in growing Ura3^-, 5-FOA resistant colonies, was confirmed by PCR and sequencing.
# For live-cell imaging, cells expressing tagged proteins were visualised after growing to early log phase. Analysis was carried out at room temperature (22 °C). […] Images were taken simultaneously on separate scientific complementary metal oxide semiconductor (sCMOS) cameras (30 msec exposure). Seven 250 nm sections were acquired every 0.5 sec (241 time points). The stacks were then deconvolved and processed, using SoftWorx. Protein localisation and lifetime was analysed from those projections. Fiji software was used to assemble movies and kymographs, to track and record behaviour of individual spots. Graphs show mean ± SD. […] Where appropriate data was tested for normal distribution using Graphpad Prism software, and then subjected to the appropriate test as described in the methods for each experiment type.
# [2] = tested on: Las17 12mer peptides / GST-Sla1 SH3 domains; experiment: Peptide spot array (Celluspot) of Las17 12mers probed with GST-Sla1 SH3 domains; format: binding, Saccharomyces cerevisiae; conditions: GST-Sla1 SH3 domain on 12mer array, 2-residue offset, anti-GST HRP, chemiluminescence
# Protocol: A Purified individual GST-tagged Sla1 SH3 domains were used to probe a Celluspot array consisting of a series of 12 amino acid peptides starting with residue 181, and subsequent peptides starting at two amino acid intervals, up to amino acid 540. Binding of GST-Sla1 SH3 to the array was identified by further probing of HRP-tagged anti-GST and subsequent visualisation using chemiluminescence. […] Error bars are standard error of mean.
# They were incubated with GST fused SH3 domains of Sla1 or with GST alone, as described in ref.[57]. Membranes were probed with HRP tagged anti-GST, and the presence of SH3-GST fusion protein was detected with ECL chemiluminescent detection solution (Thermo Fisher Scientific).
# [3] = tested on: Las17-Arp2/3 mediated actin polymerisation; conditions: 15 nM Las17, 1 µM Sla1 SH3 domains, ref [13]; cited from earlier work
# From the text: In Sla1 the first two SH3 domains are immediately juxtaposed with no linker. There are then 236 residues before the third SH3 domain (Fig. 1A).
# [4] = biological target: T2, Las17 PPR-N fragment (residues 300-422), wild type (S. cerevisiae, UniProt Q12446 300-422); experiment: BLI; Octet R2 (Sartorius); Octet NTA Biosensors or Octet GST Biosensors, which partner was loaded is not stated; repeated three times; the constant of SH3#1-3 is called apparent; conditions: both partners purified
# T2 construct: Las17 (yeast WASP family protein, Las17/Bee1), S. cerevisiae, residues 300-422 (N-terminal half of the polyproline region, PPR-N); also called Las17(300-422); Las17 300-422; source: E. coli, purified (GST fusion on glutathione Sepharose, cleaved with PreScission Protease; a His-tagged form purified on a nickel column was also made)
# [5] = biological target: T1, Sla1 SH3#1-2 tandem domains (aa 5-131); experiment: NMR titration; 15N-labelled Sla1 SH3 domains, 1H-15N HSQC; concentrated peptide stocks in the same buffer and pH added stepwise (0 to 8 equivalents shown); shift changes fitted to the standard quadratic equation; conditions: both partners purified
# [6] = biological target: Las17 PPR-N fragment (residues 300-422); experiment: Biolayer Interferometry (BLI), Sla1 SH3 domains to Las17 PPR-N; format: binding, Saccharomyces cerevisiae; conditions: Biolayer Interferometry, Octet R2, Las17 (aa 300-422); three repeats with newly prepared protein; read-out: binding affinity (Kd)
# From the text: To investigate binding characteristics of the SH3 domains further, Sla1 SH3 protein domains were purified. Three Sla1 SH3 single domains, tandem domains Sla1 SH3#1&2, Sla1 SH3#1&2 W108A (in which the W108A mutation prevents proline motif binding by SH3#2 but not SH3#1) and a fragment with all three SH3 domains were expressed recombinantly and purified. […] This outcome is in line with original research of Rodal and colleagues and with more recent studies of avidity developed by Williamson, which highlighted the importance of tandem binding SH3 domains[13],[27].
# Biolayer Interferometry (BLI) assays were performed using an OctetⓇ R2 (Sartorius). Protein samples were placed into the wells of a polystyrene plate (ProxiPlateTM, Perkin Elmer) and binding measured either with Octet NTA Biosensors or Octet GST Biosensors. Screening assays were performed to determine the optimum loading concentration and time for each binding pair to ensure that the probe was not saturated. All experiments were repeated three times, each time with newly prepared protein. Analysis and visualisation were performed using GraphPad Prism 10.0.2.
# [7] = Liposome co-sedimentation assay; format: binding; design: unit: %
# Protocol: Liposome binding assays were carried out as described previously. To prepare liposomes 11 μl of a 25 mg/ml solution of Folch fraction-1 was dried under a nitrogen stream. They were washed in chloroform, dried under nitrogen, and further washed with diethyl ether to remove all traces of chloroform before being dried again. The dried lipid mixture was resuspended in 200 µl of buffer B (20 mM HEPES pH 7.2, 100 mM KCl, 2 mM MgCl2, 1 mM DTT) at 37 °C for 30 min with regular gentle agitation. Liposomes were then extruded 11 times through polycarbonate filters with 1.0 μm pores. For liposome binding assays 20 μM Sla1 (pre-spun at 313,000 × g for 15 min) was mixed with 20 μl liposomes in buffer B, (final volume 50 µl) and incubated at room temperature for 15 min. Liposomes and bound protein were pelleted by centrifugation at 250,000 × g for 15 min, and supernatants and pellets carefully separated. The pellets were resuspended in 50 µl buffer B and samples were analysed by SDS-PAGE. The proportion of protein in each sample was determined by densitometry of the Coomassie stained gels using a BioRad GelDoc. Replicate experiments were carried out with protein from different preparations. To normalise the data the amount of protein in the supernatant and pellet of each sample was added together to give a value for 100%, and then the % in either the supernatant or pellet alone was calculated. When liposomes were included in the pyrene actin assay they were prepared as described for liposome binding assays, but the dried lipid mixture was resuspended in 5×KME in place of liposome buffer. This was then used as a source of KME in the pyrene actin assay as well as a source of lipid. Mean ± SD is shown n = 6. Sîdák’s multiple comparisons test was carried out using Graphpad Prism software, **** denotes two tailed P value of < 0.0001.
# Liposome binding studies: triplicate experiments were carried out with protein from different preparations. To normalise the data the amount of protein in the supernatant and pellet of each sample was added together to give a value for 100%, and then the % in either the supernatant or pellet alone was calculated. Mean ± SD is shown n = 6. Sîdák’s multiple comparisons test was carried out using Graphpad Prism software, **** denotes two tailed P value of < 0.0001.
molecule,measurement,setting,value
wt: wild type cells with Las17-GFP and Arc15-mCherry,"lifetime, GFP alone",[1],20 (3×) and 22 (4×) and 18 (2×) and 28 and 24 and 26 (2×)
same,"lifetime, GFP and RFP",[1],30 and 44 and 36 and 32 (4×)
same,"lifetime, RFP",[1],34 and 48 and 44 and 36 (3×) and 46
Sla1 SH3#3: SH3#3 (aa 354-413) (SKKRGIVQYDFMAESQDELTIKSGDKVYILDDKKSKDWWMCQLVDSGKSGLVPAQFIEPV; also: 15N-labelled),binding to Las17 peptide spots,[2],strongest binding for peptides in proline tracts 1 and 3
same,inhibition of actin polymerisation activity,[3],not
"Sla1 SH3#1 (aa 3-68) (domain or fragment, S. cerevisiae, UniProt P32790 3-68, looked up, Sla1, S. cerevisiae, first SH3 domain, residues 3-68; also called Sla1 SH3 domain 1; source: E. coli, purified (GST fusion, GST removed with thrombin; His-tagged Sla1-SH3 domains were also made)) VFLGIYRAVYAYEPQTPEELAIQEDDLLYLLQKSDIDDWWTVKKRVIGSDSEEPVGLVPSTYIEEA",Kd,[4],7.5 µM
"RNNRPVPPPPPMRTTTEGSGVR (Las17, S. cerevisiae, first PP motif; also called peptide 1; source: synthetic peptide (GenScript Biotech, UK)) [Las17 peptide p1 (PP1 motif)]",Kd at site SH3#1,[5],~70 µM
same,Kd at site SH3#2,[5],~550 µM
"LPAQTGRRGPAPPPPPRASRPTP (Las17, S. cerevisiae, third PP motif; also called peptide 3; source: synthetic peptide (GenScript Biotech, UK)) [Las17 peptide p3 (PP3 motif)]",Kd at site SH3#1,[5],~24 µM
same,Kd at site SH3#2,[5],~190 µM
"Sla1 SH3#3 (aa 354-413) (domain or fragment, S. cerevisiae, UniProt P32790 354-413, looked up, also: 15N-labelled, Sla1, S. cerevisiae, third SH3 domain, residues 354-413; also called Sla1 SH3 domain 3; source: E. coli, purified (GST fusion, GST removed with thrombin; His-tagged Sla1-SH3 domains were also made); 15N-labelled for NMR) SKKRGIVQYDFMAESQDELTIKSGDKVYILDDKKSKDWWMCQLVDSGKSGLVPAQFIEPV",Kd,[4],16 µM
"Sla1 SH3#1: Sla1 SH3#1 (aa 3-68) (protein, left off: GST, end not stated, kept) VFLGIYRAVYAYEPQTPEELAIQEDDLLYLLQKSDIDDWWTVKKRVIGSDSEEPVGLVPSTYIEEA",binding to Las17 peptide spots,[2],preference for sequences in the Las17 proline tracts 2 and 3
same,inhibition of actin polymerisation activity,[3],about 80%
"Sla1 SH3 1&2-W108A: W108A mutation prevents proline motif binding by SH3#2 but not SH3#1 (protein, UniProt P32790 5-131, looked up, variant W108A) LGIYRAVYAYEPQTPEELAIQEDDLLYLLQKSDIDDWWTVKKRVIGSDSEEPVGLVPSTYIEEAPVLKKVRAIYDYEQVQNADEELTFHENDVFDVFDDKDADALLVKSTVSNEFGFIPGNYVEPEN",Kd,[6],7.4 µM
"GST-Sla1 SH3#1-3: GST-tagged Sla1 SH3#1-3 containing the predicted PH domain (protein, UniProt P32790 5-413, looked up, fragment, GST tag, GST-tagged Sla1 SH3#1-3 containing the predicted PH domain) LGIYRAVYAYEPQTPEELAIQEDDLLYLLQKSDIDDWWTVKKRVIGSDSEEPVGLVPSTYIEEAPVLKKVRAIYDYEQVQNADEELTFHENDVFDVFDDKDADWLLVKSTVSNEFGFIPGNYVEPENGSTSKQEQAPAAAEAPAATPAAAPASAAVLPTNFLPPPQHNDRARMMQSKEDQAPDEDEEGPPPAMPARPTATTETTDATAAAVRSRTRLSYSDNDNDDEEDDYYYNSNSNNVGNHEYNTEYHSWNVTEIEGRKKKKAKLSIGNNKINFIPQKGTPHEWSIDKLVSYDNEKKHMFLEFVDPYRSLELHTGNTTTCEEIMNIIGEYKGASRDPGLREVEMASKSKKRGIVQYDFMAESQDELTIKSGDKVYILDDKKSKDWWMCQLVDSGKSGLVPAQFIEPV",liposome co-sedimentation,"[7]; 20 μM Sla1, buffer B, room temperature 15 min, 250,000 × g",co-precipitates with liposomes
same,liposome co-sedimentation,"[7]; - lipid, replicate 1",0
same,liposome co-sedimentation,"[7]; - lipid, replicate 2",11.5044
same,liposome co-sedimentation,"[7]; - lipid, replicate 3",0
same,liposome co-sedimentation,"[7]; - lipid, replicate 4",2.9
same,liposome co-sedimentation,"[7]; - lipid, replicate 5",3
same,liposome co-sedimentation,"[7]; - lipid, replicate 6",5
